Measurements taken from article PMC5624926 (2017).
Where a chain is given by its changes, count along the chain named. Names and notes keep the numbering of the source. Where two headings read alike, the source gives them in different places. Values belong to the binder of their own block, whether it stands above or below them.

Experiments:
CD22_(20–687) [1] = target: T1, CD22_(20–687) (human, UniProt P20273 20-687, N-linked glycans; glycoform not stated); test: BLI
CD22_(20–687) [2] = target: T1, CD22_(20–687); test: BLI; remark: listed apart in the source

Kd (CD22_(20–687) [1]): 1700 nM
B1: epratuzumab Y(L27D)A (antibody, V domains shown)
VH: QVQLVQSGAEVKKPGSSVKVSCKASGYTFTSYWLHWVRQAPGQGLEWIGYINPRNDYTEYNQNFKDKATITADESTNTAYMELSSLRSEDTAFYFCARRDITTFYWGQGTTVTVSS
VL: DIQLTQSPSSLSASVGDRVTMSCKSSQSVLASANHKNYLAWYQQKPGKAPKLLIYWASTRESGVPSRFSGSGSGTDFTLTISSLQPEDIATYYCHQYLSSWTFGGGTKLEIKR

Kd (CD22_(20–687) [1]): 260 nM
B2: epratuzumab N(H52)A (antibody, V domains shown)
VH: B1 VH with N52A
VL: B1 VL with A31Y

Kd (CD22_(20–687) [2]): 120 nM
B3: epratuzumab Fab (Fab, V domains shown)
VH: B1 VH
VL: DIQLTQSPSSLSASVGDRVTMSCKSSQSVLYSANHKNYLAWYQQKPGKAPKLLIYWASTRESGVPSRFSGSGSGTDFTLTISSLQPEDIATYYCHQYLSSWTFGGGTKLEIK
